In patent publication US9889183B2, “PKC activators and anticoagulant in regimen for treating stroke” (BLANCHETTE ROCKEFELLER NEUROSCIENCES INSTITUTE, priority 2010, dated 2018):

Test system: ischemic stroke (middle cerebral artery occlusion) in rats
Assay: Focal ischemia (MCAO) model of stroke
Format: in vivo, rat
Conditions: rTPA 6 hours after the stroke, without subsequent bryostatin; rats
Method: A transient animal model of focal ischemia was used for these experiments. The middle cerebral artery (MCA) was surgically dissected and occluded in anesthetized rats by ligature, followed by reperfusion after a defined period (about 2 hours). Animal models transient ischemia via occlusion of the MCA (MCAO) are well-known and described in, e.g., Sicard and Fisher, Exp. & Transl. Stroke Med. (2009), vol. 1, pp. 1-7.

B1: rTPA: recombinant tissue plasminogen activator, thrombolytic serine protease (protein, UniProt P00750 36-562, looked up)
Tissue-type plasminogen …: SYQVICRDEKTQMIYQQHQSWLRPVLRSNRVEYCWCNSGRAQCHSVPVKSCSEPRCFNGGTCQQALYFSDFVCQCPEGFAGKCCEIDTRATCYEDQGISYRGTWSTAESGAECTNWNSSALAQKPYSGRRPDAIRLGLGNHNYCRNPDRDSKPWCYVFKAGKYSSEFCSTPACSEGNSDCYFGNGSAYRGTHSLTESGASCLPWNSMILIGKVYTAQNPSAQALGLGKHNYCRNPDGDAKPWCHVLKNRRLTWEYCDVPSCSTCGLRQYSQPQFRIKGGLFADIASHPWQAAIFAKHRRSPGERFLCGGILISSCWILSAAHCFQERFPPHHLTVILGRTYRVVPGEEEQKFEVEKYIVHKEFDDDTYDNDIALLQLKSDSSRCAQESSVVRTVCLPPADLQLPDWTECELSGYGKHEALSPFYSERLKEAHVRLYPSSRCTSQHLLNRTVTDNMLCAGDTRSGGPQANLHDACQGDSGGPLVCLNDGRMTLVGIISWGLGCGQKDVPGVYTKVTNYLDWIRDNMRP
mortality: 44%
